Target: OLFM4 recombinant protein (SPR) (UniProt Q3UZZ4)
Assay: SPR

UniProt Q3UZZ4, sequence (Q3UZZ4 19-505): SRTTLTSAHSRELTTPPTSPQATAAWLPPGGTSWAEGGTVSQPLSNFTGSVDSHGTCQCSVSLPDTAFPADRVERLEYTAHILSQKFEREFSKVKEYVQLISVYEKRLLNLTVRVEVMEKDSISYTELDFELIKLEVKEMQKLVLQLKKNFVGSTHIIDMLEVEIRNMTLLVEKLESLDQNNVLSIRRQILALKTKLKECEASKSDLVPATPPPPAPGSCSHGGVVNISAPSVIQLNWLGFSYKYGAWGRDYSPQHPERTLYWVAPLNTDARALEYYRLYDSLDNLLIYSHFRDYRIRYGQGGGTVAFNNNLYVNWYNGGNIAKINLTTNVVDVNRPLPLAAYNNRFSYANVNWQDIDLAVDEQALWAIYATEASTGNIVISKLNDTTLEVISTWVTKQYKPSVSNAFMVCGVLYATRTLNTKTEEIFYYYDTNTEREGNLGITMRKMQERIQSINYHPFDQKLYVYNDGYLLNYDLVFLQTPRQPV

MTDH protein, extracellular domain (SPR) (from UniProt Q80WJ7 1-48) (domain or fragment)
Kd: 0.0219 nM

From paper PMC11286877
